From article doi:10.1101/2023.04.03.535215

Molecular target: SARS-CoV-2 S protein receptor-binding domain (SARS-CoV-2) (UniProt P0DTC2)
Assay: ELISA

In the case of “Native human surfactant protein A (from UniProt Q8IWL2 21-248) (natural protein)”, the percent decrease of binding in 10 mM EDTA was 59%.
